Source: article PMC4457833, “Effective Optimization of Antibody Affinity by Phage Display Integrated with High-Throughput DNA Synthesis and Sequencing Technologies” (PLoS ONE, 2015)

Molecular target: T1, biotinylated recombinant dimeric ErbB2 ECD-Fc fusion protein (Homo sapiens, UniProt P04626, biotin (EZ-Link NHS-PEG4-Biotin labeling kit))
T1 construct: ErbB2, extracellular domain (ECD); Cloned in the mammalian expression vector pSectag 2A; also called Bio-ECD; source: Expi293, transiently expressed, purified on Protein A, then biotinylated
Assay: SPR; Biacore 3000, 25°C; Bio-ECD (1 μg/ml in PBS) immobilised on SA sensor chip at about 300 RU; antibodies 10 μg/ml in PBS flowed at 30 μl/min, 15 min dissociation; regeneration 50 mM NaOH; triplicate
Details: both partners purified

Kd: 4.03 nM
koff: 0.000262 s⁻¹
kon: 65000 M⁻¹ s⁻¹
B1: HuA21 scFv-Fc fusion antibody (humanized anti-ErbB2 antibody HuA21, wild type) (scFv, V domains shown)
VH: QVQLVQSGAEVVKPGASVKISCKASGYSFTGYFINWVKQNPGQRLEWIGHISSSYATSTYNQKFKGKATLTVDTSASTAYMELSSLRSEDTAVYYCVRSGNYEEYAMDYWGQGTLVTVSS
VL: DIVLTQSPDSLAVSLGERVTINCKSSQTLLYSNNQKNYLAWYQQKPGQSPKLLISWAFTRKSGVPDRFSGSGSGTDFTLTISSVQAEDVAVYYCQQYSNYPWTFGAGTKLEIK
notes: the HuA21 scFv gene is deposited in GenBank under KP749832; also called HuA21 (wt); wild-type HuA21; source: Expi293, transfected; conditioned medium (screening ELISA); purified by Protein A and Superdex G200 size-exclusion chromatography (SPR)
